The chains are these.
B1: IL6R-BP194/IL6R-L (antibody, human IgG1, kappa, name in EU numbering)
heavy: QVQLQESGPGLVKPSETLSLTCAVSGHSISHDHAWSWVRQPPGEGLEWIGFISYSGITNYNPSLQGRVTISRDNSKNTLYLQMNSLRAEDTAVYYCARSLARTTAMDYWGEGTLVTVSSASTKGPSVFPLAPSSKSTSGGTAALGCLVKDYFPEPVTVSWNSGALTSGVHTFPAVLQSSGLYSLSSVVTVPSSSLGTQTYICNVNHKPSNTKVDKKVEPKSCDKTHTCPPCPAPDYLGDDSVFLFPPKPKDTLMISRTPEVTCVVVDVSDEDGEVKFNWYVDGVEVHNAKTKPREEQYNSTYRVVSVLTVLHQDWLNGKEYKCKVSNAALPKPIEKTISKAKGQPREPQVYTLPPSRDELTKNQVSLTCLVKGFYPSDIAVEWESNGQPENNYKTTPPVLDSDGSFFLYSKLTVDKSRWQQGNVFSCSVMHEALHNHYTQESLSLSP
light: not shown
B2: IL6R-BP187/IL6R-L (antibody, human IgG1, kappa, name in EU numbering)
heavy: B1 heavy with D235E, D239G, D270H
light: not shown
B3: IL6R-BP183/IL6R-L (antibody, human IgG1, kappa, name in EU numbering)
heavy: B1 heavy with D239G, D270H
light: not shown
B4: IL6R-BP206/IL6R-L (antibody, human IgG1, kappa, name in EU numbering)
heavy: B1 heavy with Y236L, D239G, D270H, A328K, K332R
light: not shown
B5: IL6R-BP179/IL6R-L (antibody, human IgG1, kappa, name in EU numbering)
heavy: B1 heavy with D235E, Y236L, D270H
light: not shown
B6: IL6R-BP177/IL6R-L (antibody, human IgG1, kappa, name in EU numbering)
heavy: B1 heavy with D270H, A328D
light: not shown
B7: IL6R-BP150/IL6R-L (antibody, human IgG1, kappa, name in EU numbering)
heavy: B1 heavy with D235E, D270H, G273P, K332R
light: not shown
B8: IL6R-BP192/IL6R-L (antibody, human IgG1, kappa, name in EU numbering)
heavy: B1 heavy with Y236L, D239G, Y298D, A328K
light: not shown
B9: IL6R-BP185/IL6R-L (antibody, human IgG1, kappa, name in EU numbering)
heavy: B1 heavy with D270H
light: not shown
B10: IL6R-BP196/IL6R-L (antibody, human IgG1, kappa, name in EU numbering)
heavy: B1 heavy with D235E, D239G
light: not shown
B11: IL6R-BP207/IL6R-L (antibody, human IgG1, kappa, name in EU numbering)
heavy: B1 heavy with Y236L, D239G, D270H, G273P, A328K, K332R
light: not shown
B12: IL6R-BP184/IL6R-L (antibody, human IgG1, kappa, name in EU numbering)
heavy: B1 heavy with Y236L, D239G, D270H, A328K
light: not shown
B13: IL6R-BP180/IL6R-L (antibody, human IgG1, kappa, name in EU numbering)
heavy: B1 heavy with D235E, Y236L, D270H, A328K
light: not shown
B14: IL6R-BP209/IL6R-L (antibody, human IgG1, kappa, name in EU numbering)
heavy: B1 heavy with D235E, Y236L, K332R
light: not shown
B15: IL6R-BP186/IL6R-L (antibody, human IgG1, kappa, name in EU numbering)
heavy: B1 heavy with D270H, Y298D
light: not shown
B16: IL6R-BP198/IL6R-L (antibody, human IgG1, kappa, name in EU numbering)
heavy: B1 heavy with D239G
light: not shown
B17: IL6R-BP203/IL6R-L (antibody, human IgG1, kappa, name in EU numbering)
heavy: B1 heavy with D235E, Y236L, D270H, A328K, K332R
light: not shown
B18: IL6R-BP189/IL6R-L (antibody, human IgG1, kappa, name in EU numbering)
heavy: B1 heavy with D235E, Y236L
light: not shown
B19: IL6R-BP213/IL6R-L (antibody, human IgG1, kappa, name in EU numbering)
heavy: B1 heavy with Y236L, D239G, A328K, K332R
light: not shown
B20: IL6R-BP148/IL6R-L (antibody, human IgG1, kappa, name in EU numbering)
heavy: B1 heavy with D270H, G273P
light: not shown
B21: IL6R-BP199/IL6R-L (antibody, human IgG1, kappa, name in EU numbering)
heavy: B1 heavy with Y236L, D239G, D270H, G273P, K332R
light: not shown
B22: IL6R-BP149/IL6R-L (antibody, human IgG1, kappa, name in EU numbering)
heavy: B1 heavy with D270H, G273P, Y298D
light: not shown
notes: Same printed alterations as IL6R-BP214
B23: IL6R-BP423/IL6R-L (antibody, human IgG1, kappa)
heavy: B1 heavy with Y236L, S269A, D270E, A328K, K332R
light: not shown
B24: IL6R-BP437/IL6R-L (antibody, human IgG1, kappa)
heavy: B1 heavy with D235E, Y236L, S269A, D270E, Y298D, A328K, K332R, I334T
light: not shown
B25: IL6R-BP487/IL6R-L (antibody, human IgG1, kappa)
heavy: B1 heavy with Y236L, V266I, S269A, D270E, A328K, K332R, P398M
light: not shown
B26: IL6R-BP445/IL6R-L (antibody, human IgG1, kappa)
heavy: B1 heavy with Y236L, V266I, S269A, D270E, A328K, K332R
light: not shown
B27: IL6R-BP429/IL6R-L (antibody, human IgG1, kappa)
heavy: B1 heavy with Y236L, V266I, S269G, D270E, A328K, K332R
light: not shown

Where a chain is given by its changes, count along the chain named.

T1 sequence (P12314 16-292): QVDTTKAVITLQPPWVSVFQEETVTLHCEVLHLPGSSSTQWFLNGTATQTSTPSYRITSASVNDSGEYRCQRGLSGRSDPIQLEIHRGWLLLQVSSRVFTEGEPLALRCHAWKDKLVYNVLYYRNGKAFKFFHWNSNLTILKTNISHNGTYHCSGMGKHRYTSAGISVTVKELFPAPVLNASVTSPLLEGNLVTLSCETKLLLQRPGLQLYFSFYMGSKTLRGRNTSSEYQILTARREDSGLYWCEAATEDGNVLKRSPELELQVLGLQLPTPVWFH
T2 sequence (P08637 17-208 F176V): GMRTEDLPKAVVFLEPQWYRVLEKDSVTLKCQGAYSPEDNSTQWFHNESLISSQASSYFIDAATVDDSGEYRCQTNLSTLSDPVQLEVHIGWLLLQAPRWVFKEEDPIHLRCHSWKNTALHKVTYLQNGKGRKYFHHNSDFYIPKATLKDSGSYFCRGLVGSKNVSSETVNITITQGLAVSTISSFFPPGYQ

The first assay has as its target T1, human FcγRIa extracellular domain with C-terminal His tag (human, UniProt P12314 16-292).
T1 construct: Whole entry named; also called FcgRIa; FcgIa
Put plainly: SPR; IL6R-BF648/IL6R-L=100. As for the experimental part:
(§1) IL6R-L was utilized as the common antibody L chain for all of the antibodies, the antibodies were expressed and purified according to the method of Reference Example 1, and binding to each of the FcγRs (FcγRIa, FcγRIIa type H, FcγRIIa type R, FcγRIIb, and FcγRIIIa type V) was comprehensively evaluated by the method of Reference Example 2.
(§2) Relative binding activities were calculated for the results of analyzing interactions with the respective FcγRs according to the following method.
(SPR reads the build-up and loss of mass on a sensor chip optically.)
As to B1, the relative binding activity stood at 69.
The molecule B2 gave a relative binding activity of 68.
Still for that read-out and setting: to B3 belongs 83.
Still for that read-out and setting: to B4 belongs 101.
In turn, B5 came in with a relative binding activity of 39.
Same read-out and setting: the figure for B6 is 57; for B7 it is 30.
Same read-out and setting: to B8 belongs 109; to B9, 47; to B10, 89.
With B11, the relative binding activity was determined as 74.
Still for that read-out and setting: the figure for B12 is 96; for B13 it is 29; for B14 it is 68.
The molecule B15 came in with a relative binding activity of 43.
Same read-out and setting: the figure for B16 is 104.
The same measure, in the same setting: to B17 belongs 35.
B18: the relative binding activity worked out at 56.
On the same count and under the same terms, to B19 belongs 118.
B20: the relative binding activity is 33.
In the case of B21, the relative binding activity was determined as 112.
B22: the relative binding activity turned out to be 29.

The next assay addresses T2, human FcγRIIIa type V extracellular domain with C-terminal His tag (human, UniProt P08637 17-208).
T2 construct: extracellular domain; also called FcgRIIIaV; FcγRIIIaV
Nature of the assay: SPR; IL6R-BF648/IL6R-L=100. As for the experimental part: as §1, §2
Turning to B1, the relative binding activity came out at 249.
Regarding B2, the relative binding activity turned out to be 124.
For the molecule B3, the relative binding activity is 113.
Regarding B4, the relative binding activity stood at 92.
Still for that read-out and setting: to B5 belongs 125; to B6, 186.
The same measure, in the same setting: the figure for B7 is 204; for B8 it is 118.
In the case of B9, the relative binding activity was found to be 191.
In turn, B10 returned a relative binding activity of 137.
Same read-out and setting: the figure for B11 is 97; for B12 it is 106; for B13 it is 100.
The molecule B14 registered a relative binding activity of 153.
B15: the relative binding activity was determined as 143.
The same measure, in the same setting: to B16 belongs 157.
B17: the relative binding activity turned out to be 88.
As for B18, the relative binding activity turned out to be 141.
On the same count and under the same terms, the figure for B19 is 100.
B20: the relative binding activity was 227.
Regarding B21, the relative binding activity came out at 103.
Take B22: the relative binding activity was determined as 186.

A further assay has as its target T3, human FcγRIIb extracellular domain with C-terminal His tag (human, UniProt P31994 43-217).
T3 construct: extracellular domain; For crystals it was expressed with kifunensine and trimmed with Endo F1; also called FcgRIIb; FcγRIIb extracellular region
T3 sequence (looked up): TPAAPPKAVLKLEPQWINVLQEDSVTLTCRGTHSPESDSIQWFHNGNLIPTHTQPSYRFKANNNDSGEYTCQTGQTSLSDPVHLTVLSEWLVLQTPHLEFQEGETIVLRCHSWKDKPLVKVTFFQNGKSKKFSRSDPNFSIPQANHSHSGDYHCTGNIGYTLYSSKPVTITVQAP
Nature of the assay: SPR; IL6R-BF648/IL6R-L=100. The procedure: as §1, §2
As for B1, the relative binding activity turned out to be 178.
In the case of B2, the relative binding activity amounted to 157.
As for B3, the relative binding activity is 164.
Still for that read-out and setting: to B4 belongs 168; to B5, 177.
Same read-out and setting: the figure for B6 is 177; for B7 it is 183.
The molecule B8 showed a relative binding activity of 172.
In turn, B9 gave a relative binding activity of 179.
The molecule B10 returned a relative binding activity of 157.
Still for that read-out and setting: to B11 belongs 124; to B12, 171; to B13, 179.
Same read-out and setting: to B14 belongs 186; to B15, 175.
The same measure, in the same setting: to B16 belongs 164.
B17 displayed a relative binding activity of 185.
The same measure, in the same setting: the figure for B18 is 177.
On the same count and under the same terms, to B19 belongs 169; to B20, 176.
Turning to B21, the relative binding activity was determined as 144.
With B22, the relative binding activity came out at 173.

The next assay concerns the target T4, human FcγRIIa type H extracellular domain with C-terminal His tag (human, UniProt P12318 34-217).
T4 construct: extracellular domain; also called FcgRIIaH; FcγRIIa H
T4 sequence (looked up): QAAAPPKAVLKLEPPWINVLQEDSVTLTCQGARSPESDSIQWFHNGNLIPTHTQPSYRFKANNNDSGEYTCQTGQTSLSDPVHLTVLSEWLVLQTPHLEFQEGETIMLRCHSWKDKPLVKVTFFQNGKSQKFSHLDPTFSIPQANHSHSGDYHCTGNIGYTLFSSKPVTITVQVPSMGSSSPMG
Put plainly: SPR; IL6R-BF648/IL6R-L=100. As for the experimental part:
as §1, §2
As for B1, the relative binding activity came out at 395.
The same measure, in the same setting: to B2 belongs 205; to B3, 191.
Turning to B4, the relative binding activity came out at 123.
Same read-out and setting: the figure for B5 is 226; for B6 it is 409; for B7 it is 770.
Still for that read-out and setting: to B8 belongs 122.
Still for that read-out and setting: the figure for B9 is 446; for B10 it is 195; for B11 it is 103.
Turning to B12, the relative binding activity was 131.
Molecule B13 showed a relative binding activity of 203.
Same read-out and setting: the figure for B14 is 267; for B15 it is 368.
Molecule B16 returned a relative binding activity of 188.
On the same count and under the same terms, to B17 belongs 255; to B18, 183.
The same measure, in the same setting: to B19 belongs 123; to B20, 462.
Still for that read-out and setting: the figure for B21 is 116.
Turning to B22, the relative binding activity came out at 401.

The target in a further assay is T3, human FcγRIIb extracellular domain with …. Nature of the assay: SPR.
Take B23: the binding result is “binds”.
With B24, the binding result is recorded as “binds”.
The same measure, in the same setting: the entry for B25 is “binds”.
Still for that read-out and setting: to B26 belongs “binds”; to B27, “binds”.

(Values after patent publication US20150299296A1 (Chugai, published 2015).)
